Experimental data: patent US20240083958A1, “G PROTEIN PEPTIDOMIMETICS” (VRIJE UNIVERSITEIT BRUSSEL, priority 2020, published 2024)
Read-outs that look alike come from different tables or passages of the source. Bridge positions count the residues as written; N and C are the ends. Square brackets hold non-standard residues; d marks the D form. Primed or numbered codes have the meaning given here. Azk = residue with azidated side chain, clicked to Pra; Pra′ = residue with alkynyl side chain, clicked to Azk; Cha = N[C@@H](CC1CCCCC1)C(=O)O

Legend:
[1] = target: T1, human β2AR (human, UniProt P07550 2-365); assay: cell-based or functional assay
[2] = target: dopamine 1 receptor (D1R) (Homo sapiens, UniProt P21728); assay: GPCR-radioligand binding assay (RLA) with dopamine 1 receptor (D1R), [3H]-SCH23390 as radiolabelled antagonist, A-77636 (agonist), in presence and absence of the peptidomimetic; details: Table 19; peptidomimetic at 10 μM; ratio IC50 D1R alone / IC50 D1R + peptidomimetic
Protocol: For the radioligand assays on D1R a similar buffer, as for β2AR, was used for the ligands, membrane extracts and peptides (+1% DMSO). The competition assay was performed with [^3H]-SCH23390 as radiolabelled antagonist, at a concentration of 2 nM. A ten-fold dilution series of the agonist, A-77636, was prepared to obtain a dose response curve, starting from 100 μM for the receptor alone and 10 μM in the presence of the peptidomimetics. After incubation, the samples were harvested into filter plates, pre-soaked with 0.5% polyethylenimine (PEI), and washed with ice cold washing buffer using the 96-well harvester. After drying in the oven during 1 h and the addition of scintillation liquid, the plates were placed in the MICROBETA® scintillation counter and incubated for 30 min in the dark before reading.
(§1) After the Microbeta scintillation counter, the experimental data was further analyzed using Graphpad Prism 6.0. After normalization of the raw data, a nonlinear regression was used to fit the data in a one-site binding model, with the total binding set as 100% and the non-specific binding between 0 and 5%. The IC50 values, obtained from the competition curves, were used to determine the shift for each peptide, which is the ratio of IC50 of the agonist test compound on the basal conformation (e.g. IC50 β2AR with no peptidomimetic) versus the active conformation (e.g. IC50 β2AR+peptidomimetic) of the receptor. For certain peptide analogues, a biphasic binding curve was observed and therefore fitted by a two-site model (nonlinear regression), resulting in two IC50 values (IC50Hi and IC50Lo) and a FractionHi, the fraction of receptors in the active state.
Peptidomimetics were screened using GPCR-radioligand binding assay (RLA) with dopamine 1 receptor (D1R) binding, using [^3H]-SCH23390 as radiolabelled antagonist, and increasing concentrations of A-77636 (agonist). The half maximal inhibitory concentration (IC50) represents the affinity of the agonist for the receptor. The selectivity is quantified by the shift. “[ ]” denotes cyclic peptides.

[3] = target: T2, human β2AR (Homo sapiens, UniProt P07550, N187E); assay: Radioligand binding assay (RLA) with human β2AR, 3H-dihydroalprenolol (DHA) as radioligand, isoproterenol (agonist) as cold competitor, in presence and absence of the peptidomimetic
T2 construct: made in house; host or cells: Sf9 insect cells (Bac-to-Bac baculovirus); membrane extracts
Protocol: β2AR365N constructs were expressed in Sf9 insect cells, using the Bac-to-Bac® Baculovirus Expression System. The membrane extracts were prepared from cells that expressed β2AR. Subsequently, the cell pellet was resuspended in a buffer (1 ml buffer/2×1E7 cells) containing 75 mM Tris pH 7.4, 12.5 mM MgCl2, 1 mM EDTA, Leupeptin and PMSF as protease inhibitors. Afterwards the cells were vortexed and homogenized in ice using a small volume Ultraturrax (6×10 sec). The cells were then centrifuged for 15 min at 16000 rcf, in a pre-cooled centrifuge (4° C.) and resuspended in the previous buffer containing 10% sucrose. Finally, the membranes were again homogenized in ice with the small volume Ultraturrax (3×10 sec). The protein concentration in the membrane fragments was determined using a Pierce BCA Protein Assay Kit and the protein concentration was extrapolated from the Bovine Serum Albumine standard curve.
To perform the radioligand competition binding assays, 96-well plates were used. For the assays on β2AR, the membrane extracts as well as the peptides were prepared in a binding buffer (75 mM Tris pH 7.4, 12.5 mM MgCl2, 1 mM EDTA, 0.2% BSA). The ligand (isoproterenol) and radioligand ([^3H]-dihydroalprenolol) were dissolved in ligand buffer (75 mM Tris pH 7.4, 12.5 mM MgCl2, 1 mM EDTA, 0.2% BSA and 0.1% ascorbic acid), at 1 mM and 2 nM, respectively. A ten-fold dilution series of the ligand was prepared to obtain a dose response curve. For each reaction 100 μl membrane extract, 50 μl ligand, 50 μl peptide or binding buffer containing 1% DMSO and 50 μl of radioligand was added to the V-bottom storage plate, with a total volume of 250 μl per well. Afterwards, the plates were incubated at room temperature for 2 h on a plate shaker (150 rpm). The samples were harvested into filter plates and washed with ice cold washing buffer (75 mM Tris pH 7,4) using the 96-well harvester. The plates were dried for 1 h at 50° C. and then sealed to allow the addition of 30 μl scintillation liquid to each well. Finally, the top of each plate was sealed and the plates were placed in a Wallac MICROBETA® Trilux scintillation counter and incubated for 30 min in the dark.
as §1
Synthesised peptidomimetics were evaluated using a radioligand binding assay (RLA) with a human β2AR, using ^3H-dihydroalprenolol (DHA) as the radioligand and increasing concentrations of isoproterenol (agonist) as cold competitor. In particular, the pharmacological stabilization of the receptor in the active conformation was evaluated by performing the radioligand displacement assay (RLA) in the presence and absence of the peptidomimetics. This validated assay quantifies the pharmacological stabilization of the receptor in the active conformation by comparing the affinities of an agonist for the basal versus the active GPCR conformer (Pardon et al. (2018) Angewandte Chemie International Edition 57, 5292-5295). During the assay, the binding affinity of an orthosteric agonist for the receptor, in particular isoproterenol for human β2AR, in presence and absence of the allosteric peptidomimetic was determined. […]

[4] = target: T1, human β2AR; assay: cell-based or functional assay; remark: listed apart in the source
[5] = target: T1, human β2AR; assay: cell-based or functional assay; remark: listed apart in the source
[6] = target: dopamine 1 receptor (D1R) (UniProt P21728 1-446, limits assumed); assay: cell-based or functional assay
[7] = target: T1, human β2AR; assay: cell-based or functional assay; remark: listed apart in the source
[8] = target: T1, human β2AR; assay: cell-based or functional assay; remark: listed apart in the source
[9] = target: T1, human β2AR; assay: cell-based or functional assay; remark: listed apart in the source
[10] = target: T1, human β2AR; assay: cell-based or functional assay; remark: listed apart in the source
[11] = target: T1, human β2AR; assay: cell-based or functional assay; remark: listed apart in the source
[12] = target: T1, human β2AR; assay: cell-based or functional assay; remark: listed apart in the source
[13] = target: T1, human β2AR; assay: cell-based or functional assay; remark: listed apart in the source

dopamine 1 receptor (D1R) (Homo sapiens, UniProt P21728), sequence (P21728 whole entry): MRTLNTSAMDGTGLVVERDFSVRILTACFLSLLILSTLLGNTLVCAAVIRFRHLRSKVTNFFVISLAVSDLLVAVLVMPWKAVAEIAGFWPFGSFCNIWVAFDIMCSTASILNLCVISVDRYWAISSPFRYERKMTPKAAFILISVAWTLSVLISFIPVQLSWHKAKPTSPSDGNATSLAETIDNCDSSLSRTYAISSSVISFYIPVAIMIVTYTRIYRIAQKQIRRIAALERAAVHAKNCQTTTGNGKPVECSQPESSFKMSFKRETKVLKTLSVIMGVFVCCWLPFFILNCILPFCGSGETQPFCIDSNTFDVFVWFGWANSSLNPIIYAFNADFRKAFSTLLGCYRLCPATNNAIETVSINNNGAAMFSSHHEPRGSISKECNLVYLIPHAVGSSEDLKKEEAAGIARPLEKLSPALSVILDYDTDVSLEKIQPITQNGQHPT
dopamine 1 receptor (D1R) (UniProt P21728 1-446, limits assumed), sequence (P21728 whole entry): as above

With Nb80 (VHH) the IC50 (nM) of isoproterenol, [3H]-DHA RLA, Nb80 present [1] was 9.7 nM and the Shift [1] was 146.

With “Ac-KKKFN[PraCRDAzk]IQRMHLRQYEChaL-OH (Ac-KKKFN[Pra′]CRD[Azk]IQRMHLRQYE[Cha]L-OH; triazole 6-10) [compound 51]” the Shift [2] was 52, the “Fraction HI (%)” value ([3]; Table 10, peptidomimetic at 1 μM (printed 511 μM), fraction of receptors in the active state) was 54% and the “Fraction HI (%)” value ([3]; Table 10, peptidomimetic at 10 μM, fraction of receptors in the active state) was 76%. The Shift ([3]; Table 10, peptidomimetic at 10 μM, ratio IC50 β2AR alone / + peptidomimetic) was 175, the “Fraction HI (%)” value ([3]; Table 10, peptidomimetic at 50 μM, fraction of receptors in the active state) was 79% and the Shift ([3]; Table 10, peptidomimetic at 50 μM, ratio IC50 β2AR alone / + peptidomimetic) was 170. The “Fraction HI (%)” value ([3]; Table 10, peptidomimetic at 100 μM, fraction of receptors in the active (high affinity) state, two-site model) was 77%, the Shift ([3]; Table 10, peptidomimetic at 100 μM, ratio IC50 β2AR alone / + peptidomimetic) was 345 and the Shift ([3]; Table 10, ratio IC50 β2AR alone / + peptidomimetic) was 21.

With “FNDCRDIIQRMHLRQYELL [compound 2, Ac-FNDCRDIIQRMHLRQYELL-OH]” the Shift [2] was 2 and the Shift ([3]; Table 1, ratio IC50 β2AR alone / IC50 β2AR + peptidomimetic) was 6.

Ac-FNDCRDIIQRMHLRQYELL-OH [compound 2] was tested, and the “Fraction HI (%)” value [4] was 21%, the “IC50 (nM) of isoproterenol, [3H]-DHA RLA, peptidomimetic present” value (shortened to “IC50 (nM) … peptidomimetic present”) [4] was 124 nM and the Shift [4] was 13. The “IC50 (nM) … peptidomimetic present” value [5] was 77.1 nM, the Shift [5] was 13 and the “IC50 (nM) of A-77636, [3H]-SCH23390 RLA, compound 2 at 10 µM” value [6] was 5.8 nM. The “IC50 (nM) … peptidomimetic present” value [7] was 79.4 nM, the Shift [7] was 10 and the “IC50 (nM) … peptidomimetic present” value [8] was 118 nM. For the same molecule, the “IC50 (nM) … peptidomimetic present” value [9] was 97.6 nM, the Shift [9] was 9 and the “Shift (averaged)” value [10] was 10.

In the case of Ac-FN[Pra′]CRD[Azk]IQRMHLRQYELL-OH (triazole 3-7) [compound 12], the “IC50 (nM) … peptidomimetic present” value [11] is reported as 37.3 nM, the Shift [11] is reported as 31 and the “IC50 (nM) … peptidomimetic present” value [12] is reported as 47.3 nM. For the same molecule, the Shift [12] was 20, the “IC50 (nM) … peptidomimetic present” value [13] was 38.9 nM and the “Shift (averaged)” value [10] was 27.

For Ac-RDIIQRMHLRQYELL-OH [compound 16], the “IC50 (nM) … peptidomimetic present” value [8] was 614 nM.
